{
  "source": "paper PMC8298264",
  "about": "“Function of cofactor Akirin2 in the regulation of gene expression in model human neutrophil-like HL60 cells” (Bioscience Reports, 2021)",
  "data": [
    {"tested_on": "human HL60 cells", "experiment": "SWATH-MS proteomics, differential protein representation, akirin2 KO vs WT HL60 cells", "format": "cell-based", "conditions": "KO vs WT; akirin2 KO vs WT HL60 cells; sheet \"Under-represented in KO\"", "in_short": "(§1)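 WT and akirin2 KO HL60 lysates (150 µg, n=3 biological replicates) were FASP trypsin-digested and desalted. A spectral library was built by IDA from 3 µg digests, then 5 µg per sample went to variable-window SWATH DIA over a 120-min 5–30% acetonitrile gradient. Identifications were accepted at 1% global FDR, with total-area-sum normalization.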", "values": [
      {"molecule": "sp¦P08559¦ODPA_HUMAN (protein, UniProt P08559 30-390, looked up) Pyruvate dehydrogenase E1 …: FANDATFEIKKCDLHRLEEGPPVTTVLTREDGLKYYRMMQTVRRMELKADQLYKQKIIRGFCHLCDGQEACCVGLEAGINPTDHLITAYRAHGFTFTRGLSVREILAELTGRKGGCAKGKGGSMHMYAKNFYGGNGIVGAQVPLGAGIALACKYNGKDEVCLTLYGDGAANQGQIFEAYNMAALWKLPCIFICENNRYGMGTSVERAAASTDYYKRGDFIPGLRVDGMDILCVREATRFAAAYCRSGKGPILMELQTYRYHGHSMSDPGVSYRTREEIQEVRSKSDPIMLLKDRMVNSNLASVEELKEIDVEVRKEIEDAAQFATADPEPPLEELGYHIYSSDPPFEVRGANQWIKFKSVS", "Fold Change": 0.6031, "Log (Fold Change)": -0.2196},
      {"molecule": "sp¦Q15007¦FL2D_HUMAN (protein, UniProt Q15007 1-396, looked up) Pre-mRNA-splicing regulator …: MTNEEPLPKKVRLSETDFKVMARDELILRWKQYEAYVQALEGKYTDLNSNDVTGLRESEEKLKQQQQESARRENILVMRLATKEQEMQECTTQIQYLKQVQQPSVAQLRSTMVDPAINLFFLKMKGELEQTKDKLEQAQNELSAWKFTPDSQTGKKLMAKCRMLIQENQELGRQLSQGRIAQLEAELALQKKYSEELKSSQDELNDFIIQLDEEVEGMQSTILVLQQQLKETRQQLAQYQQQQSQASAPSTSRTTASEPVEQSEATSKDCSRLTNGPSNGSSSRQRTSGSGFHREGNTTEDDFPSSPGNGNKSSNSSEERTGRGGSGYVNQLSAGYESVDSPTGSENSLTHQSNDTDSSHDPQEEKAVSGKGNRTVGSRHVQNGLDSSVNVQGSVL", "Fold Change": 0.593, "Log (Fold Change)": -0.227},
      {"molecule": "sp¦Q9UJZ1¦STML2_HUMAN (protein, UniProt Q9UJZ1 29-356, looked up) Stomatin-like protein 2, …: SSGLPRNTVVLFVPQQEAWVVERMGRFHRILEPGLNILIPVLDRIRYVQSLKEIVINVPEQSAVTLDNVTLQIDGVLYLRIMDPYKASYGVEDPEYAVTQLAQTTMRSELGKLSLDKVFRERESLNASIVDAINQAADCWGIRCLRYEIKDIHVPPRVKESMQMQVEAERRKRATVLESEGTRESAINVAEGKKQAQILASEAEKAEQINQAAGEASAVLAKAKAKAEAIRILAAALTQHNGDAAASLTVAEQYVSAFSKLAKDSNTILLPSNPGDVTSMVAQAMGVYGALTKAPVPGTPDSLSSGSSRDVQGTDASLDEELDRVKMS", "Fold Change": 0.6025, "Log (Fold Change)": -0.22},
      {"molecule": "sp¦O00567¦NOP56_HUMAN (protein, UniProt O00567 1-594, looked up) Nucleolar protein 56: MVLLHVLFEHAVGYALLALKEVEEISLLQPQVEESVLNLGKFHSIVRLVAFCPFASSQVALENANAVSEGVVHEDLRLLLETHLPSKKKKVLLGVGDPKIGAAIQEELGYNCQTGGVIAEILRGVRLHFHNLVKGLTDLSACKAQLGLGHSYSRAKVKFNVNRVDNMIIQSISLLDQLDKDINTFSMRVREWYGYHFPELVKIINDNATYCRLAQFIGNRRELNEDKLEKLEELTMDGAKAKAILDASRSSMGMDISAIDLINIESFSSRVVSLSEYRQSLHTYLRSKMSQVAPSLSALIGEAVGARLIAHAGSLTNLAKYPASTVQILGAEKALFRALKTRGNTPKYGLIFHSTFIGRAAAKNKGRISRYLANKCSIASRIDCFSEVPTSVFGEKLREQVEERLSFYETGEIPRKNLDVMKEAMVQAEEAAAEITRKLEKQEKKRLKKEKKRLAALALASSENSSSTPEECEEMSEKPKKKKKQKPQEVPQENGMEDPSISFSKPKKKKSFSKEELMSSDLEETAGSTSIPKRKKSTPKEETVNDPEEAGHRSGSKKKRKFSKEEPVSSGPEEAVGKSSSKKKKKFHKASQED", "Fold Change": 0.6041, "Log (Fold Change)": -0.2189},
      {"molecule": "sp¦O95104¦SCAF4_HUMAN (protein, UniProt O95104 1-1147, looked up) SR-related and CTD-associated …: MDAVNAFNQELFSLMDMKPPISRAKMILITKAAIKAIKLYKHVVQIVEKFIKKCKPEYKVPGLYVIDSIVRQSRHQFGTDKDVFGPRFSKNITATFQYLYLCPSEDKSKIVRVLNLWQKNGVFKIEIIQPLLDMAAGTSNAAPVAENVTNNEGSPPPPVKVSSEPPTQATPNSVPAVPQLPSSDAFAAVAQLFQTTQGQQLQQILQTFQQPPKPQSPALDNAVMAQVQAITAQLKTTPTQPSEQKAAFPPPEQKTAFDKKLLDRFDYDDEPEAVEESKKEDTTAVTTTAPAAAVPPAPTATVPAAAAPAAASPPPPQAPFGFPGDGMQQPAYTQHQNMDQFQPRMMGIQQDPMHHQVPLPPNGQMPGFGLLPTPPFPPMAQPVIPPTPPVQQPFQASFQAQNEPLTQKPHQQEMEVEQPCIQEVKRHMSDNRKSRSRSASRSPKRRRSRSGSRSRRSRHRRSRSRSRDRRRHSPRSRSQERRDREKERERRQKGLPQVKPETASVCSTTLWVGQLDKRTTQQDVASLLEEFGPIESINMIPPRGCAYIVMVHRQDAYRALQKLSRGNYKVNQKSIKIAWALNKGIKADYKQYWDVELGVTYIPWDKVKPEELESFCEGGMLDSDTLNPDWKGIPKKPENEVAQNGGAETSHTEPVSPIPKPLPVPVPPIPVPAPITVPPPQVPPHQPGPPVVGALQPPAFTPPLGIPPPGFGPGVPPPPPPPPFLRPGFNPMHLPPGFLPPGPPPPITPPVSIPPPHTPPISIPNSTIAGINEDTTKDLSIGNPIPTVVSGARGNAESGDSVKMYGSAVPPAAPTNLPTPPVTQPVSLLGTQGVAPGPVIGLQAPSTGLLGARPGLIPLQRPPGMPPPHLQRFPLMPPRPMPPHMMHRGPPPGPGGFAMPPPHGMKGPFPPHGPFVRPGGMPGLGGPGPGPGGPEDRDGRQQPPQQPQQQPQPQAPQQPQQQQQQQPPPSQQPPPTQQQPQQFRNDNRQQFNSGRDQERFGRRSFGNRVENDRERYGNRNDDRDNSNRDRREWGRRSPDRDRHRDLEERNRRSSGHRDRERDSRDRESRREKEEARGKEKPEVTDRAGGNKTVEPPISQVGNVDTASELEKGVSEAAVLKPSEELPAEATSSVEPEKDSGSAAEAPR", "Fold Change": 0.586, "Log (Fold Change)": -0.2321},
      {"molecule": "sp¦P49588¦SYAC_HUMAN (protein, UniProt P49588 1-968, looked up) Alanine--tRNA ligase, …: MDSTLTASEIRQRFIDFFKRNEHTYVHSSATIPLDDPTLLFANAGMNQFKPIFLNTIDPSHPMAKLSRAANTQKCIRAGGKHNDLDDVGKDVYHHTFFEMLGSWSFGDYFKELACKMALELLTQEFGIPIERLYVTYFGGDEAAGLEADLECKQIWQNLGLDDTKILPGNMKDNFWEMGDTGPCGPCSEIHYDRIGGRDAAHLVNQDDPNVLEIWNLVFIQYNREADGILKPLPKKSIDTGMGLERLVSVLQNKMSNYDTDLFVPYFEAIQKGTGARPYTGKVGAEDADGIDMAYRVLADHARTITVALADGGRPDNTGRGYVLRRILRRAVRYAHEKLNASRGFFATLVDVVVQSLGDAFPELKKDPDMVKDIINEEEVQFLKTLSRGRRILDRKIQSLGDSKTIPGDTAWLLYDTYGFPVDLTGLIAEEKGLVVDMDGFEEERKLAQLKSQGKGAGGEDLIMLDIYAIEELRARGLEVTDDSPKYNYHLDSSGSYVFENTVATVMALRREKMFVEEVSTGQECGVVLDKTCFYAEQGGQIYDEGYLVKVDDSSEDKTEFTVKNAQVRGGYVLHIGTIYGDLKVGDQVWLFIDEPRRRPIMSNHTATHILNFALRSVLGEADQKGSLVAPDRLRFDFTAKGAMSTQQIKKAEEIANEMIEAAKAVYTQDCPLAAAKAIQGLRAVFDETYPDPVRVVSIGVPVSELLDDPSGPAGSLTSVEFCGGTHLRNSSHAGAFVIVTEEAIAKGIRRIVAVTGAEAQKALRKAESLKKCLSVMEAKVKAQTAPNKDVQREIADLGEALATAVIPQWQKDELRETLKSLKKVMDDLDRASKADVQKRVLEKTKQFIDSNPNQPLVILEMESGASAKALNEALKLFKMHSPQTSAMLFTVDNEAGKITCLCQVPQNAANRGLKASEWVQQVSGLMDGKGGGKDVSAQATGKNVGCLQEALQLATSFAQLRLGDVKN", "Fold Change": 0.5997, "Log (Fold Change)": -0.2221},
      {"molecule": "sp¦Q9Y5J7¦TIM9_HUMAN (protein, UniProt Q9Y5J7 2-89, looked up) Mitochondrial import inner …: AAQIPESDQIKQFKEFLGTYNKLTETCFLDCVKDFTTREVKPEETTCSEHCLQKYLKMTQRISMRFQEYHIQQNEALAAKAGLLGQPR", "Fold Change": 0.5881, "Log (Fold Change)": -0.2305},
      {"molecule": "sp¦O75663¦TIPRL_HUMAN (protein, UniProt O75663 1-272, looked up) TIP41-like protein: MMIHGFQSSHRDFCFGPWKLTASKTHIMKSADVEKLADELHMPSLPEMMFGDNVLRIQHGSGFGIEFNATDALRCVNNYQGMLKVACAEEWQESRTEGEHSKEVIKPYDWTYTTDYKGTLLGESLKLKVVPTTDHIDTEKLKAREQIKFFEEVLLFEDELHDHGVSSLSVKIRVMPSSFFLLLRFFLRIDGVLIRMNDTRLYHEADKTYMLREYTSRESKISSLMHVPPSLFTEPNEISQYLPIKEAVCEKLIFPERIDPNPADSQKSTQVE", "Fold Change": 0.5915, "Log (Fold Change)": -0.228}
    ]},
    {"tested_on": "human HL60 cells", "experiment": "SWATH-MS proteomics, differential protein representation, akirin2 KO vs WT HL60 cells", "format": "cell-based", "conditions": "akirin2 KO vs WT HL60 cells; sheet \"Under-represented in KO\"", "in_short": "as §1", "values": [
      {"molecule": "sp¦P84103¦SRSF3_HUMAN (protein, UniProt P84103 1-164, looked up) Serine/arginine-rich splicing …: MHRDSCPLDCKVYVGNLGNNGNKTELERAFGYYGPLRSVWVARNPPGFAFVEFEDPRDAADAVRELDGRTLCGCRVRVELSNGEKRSRNRGPPPSWGRRPRDDYRRRSPPPRRRSPRRRSFSRSRSRSLSRDRRRERSLSRERNHKPSRSFSRSRSRSRSNERK", "Fold Change": 0.2712, "Log (Fold Change)": -0.5667},
      {"molecule": "sp¦Q09161¦NCBP1_HUMAN (protein, UniProt Q09161 1-790, looked up) Nuclear cap-binding protein …: MSRRRHSDENDGGQPHKRRKTSDANETEDHLESLICKVGEKSACSLESNLEGLAGVLEADLPNYKSKILRLLCTVARLLPEKLTIYTTLVGLLNARNYNFGGEFVEAMIRQLKESLKANNYNEAVYLVRFLSDLVNCHVIAAPSMVAMFENFVSVTQEEDVPQVRRDWYVYAFLSSLPWVGKELYEKKDAEMDRIFANTESYLKRRQKTHVPMLQVWTADKPHPQEEYLDCLWAQIQKLKKDRWQERHILRPYLAFDSILCEALQHNLPPFTPPPHTEDSVYPMPRVIFRMFDYTDDPEGPVMPGSHSVERFVIEENLHCIIKSHWKERKTCAAQLVSYPGKNKIPLNYHIVEVIFAELFQLPAPPHIDVMYTTLLIELCKLQPGSLPQVLAQATEMLYMRLDTMNTTCVDRFINWFSHHLSNFQFRWSWEDWSDCLSQDPESPKPKFVREVLEKCMRLSYHQRILDIVPPTFSALCPANPTCIYKYGDESSNSLPGHSVALCLAVAFKSKATNDEIFSILKDVPNPNQDDDDDEGFSFNPLKIEVFVQTLLHLAAKSFSHSFSALAKFHEVFKTLAESDEGKLHVLRVMFEVWRNHPQMIAVLVDKMIRTQIVDCAAVANWIFSSELSRDFTRLFVWEILHSTIRKMNKHVLKIQKELEEAKEKLARQHKRRSDDDDRSSDRKDGVLEEQIERLQEKVESAQSEQKNLFLVIFQRFIMILTEHLVRCETDGTSVLTPWYKNCIERLQQIFLQHHQIIQQYMVTLENLLFTAELDPHILAVFQQFCALQA", "Fold Change": 0.2701, "Log (Fold Change)": -0.5684}
    ]}
  ]
}
